Legend:
[1] = discontinuous spectral NMNATse assay coupled to alcohol dehydrogenase (NAD to NADH, 340 nm); format: biochemical; details: specific activity; 37° C., pH 7.5, 2 mM ATP, NMN substrate; 1 unit = 1 micromole NADH per minute
Procedure: The discontinuous spectral NMNATse assay procedure (used for both human NadD2_HS and NadR) coupled to alcohol dehydrogenase (ADH) catalyzed conversion of NAD to NADH was adapted from Balducci, E., et al., Biochem. J., 310:395-400 (1995), as described in U.S. Ser. No. 09/550,398, filed Apr. 14, 2000. The assay was performed in disposable UV-transparent plastic cuvettes in a 6-cuvette autosampler of Beckman DU-640 set at 37° C. The 500 μL mixture contained 100 mM HEPES, pH 7.5, 115 mM ethanol, 40 mM semicarbazide, 2 mM ATP, 3 units of ADH (Sigma), and 0.2-2 milliunits of NMNATse (0.1-10 μg depending on specific activity). A reaction was initiated by adding 10 μL of 50 mM NMN, and monitored at 340 nm over 20 minutes. An extinction coefficient of NADH equal to 6.22 mM^−1 cm^−1 was used for rate calculations. One unit of enzyme was defined as a quantity capable of producing 1 micromole of NADH per minute.

[2] = discontinuous spectral NRKse assay coupled to NadD2_HS (NMNATse) and ADH; format: biochemical; details: for NRKse and NMNATse activity (summary in words): NMNATse and NRKse assays together; for RATIO: ratio NmR Kinase / NMNATse specific activity; for NmR Kinase: specific activity, 37° C., pH 8.0, 0.8 mM NmR, ATP, 1 unit = 1 micromole NADH per minute
Procedure: The discontinuous spectral NRKse assay was based on enzymatic coupling of NmR→NMN conversion to production of NAD, catalyzed by excess amounts of recombinant purified NadD2_HS enzyme (NMNATse). NAD production was further coupled to NADH conversion by ADH, as in the NMNATse assay described above.
The assay was performed in disposable UV-transparent plastic cuvettes in a 6-cuvette autosampler of Beckman DU-640 set at 37° C. The 500 μL mixture contained 100 mM Tris/HCl pH 8.0, 115 mM ethanol, 40 mM semicarbazide, 0.8 mM NmR, 0.15 units of NadD2_HS, 3 units of ADH (Sigma), and 0.2-2 milliunits of NRKse (0.2-2 μg, depending on the specific activity). A reaction was initiated by adding 50 μL of 50 mM ATP, and monitored at 340 nm over 20 minutes. An extinction coefficient of NADH equal to 6.22 mM^−1 cm^−1 was used for rate calculations. One unit of enzyme was defined as a quantity capable of producing 1 micromole of NADH per minute.

B1: NadR Salmonella: full-size NadR protein from Salmonella typhimurium, all three domains (HTH, NMNATse, NRKse), His-tagged recombinant (protein, UniProt P24518 1-410, looked up)
chain: MSSFDYLKTAIKQQGCTLQQVADASGMTKGYLSQLLNAKIKSPSAQKLEALHRFLGLEFPRRQKNIGVVFGKFYPLHTGHIYLIQRACSQVDELHIIMGYDDTRDRGLFEDSAMSQQPTVSDRLRWLLQTFKYQKNIRIHAFNEEGMEPYPHGWDVWSNGIKAFMAEKGIQPSWIYTSEEADAPQYLEHLGIETVLVDPERTFMNISGAQIRENPFRYWEYIPTEVKPFFVRTVAILGGESSGKSTLVNKLANIFNTTSAWEYGRDYVFSHLGGDEMALQYSDYDKIALGHAQYIDFAVKYANKVAFIDTDFVTTQAFCKKYEGREHPFVQALIDEYRFDLVILLENNTPWVADGLRSLGSSVDRKAFQNLLVEMLKENNIEFVHVKEADYDGRFLRCVELVKEMMGEQG
modifications: full-length His tag
notes: full-size NadR protein from Salmonella typhimurium, all three domains (HTH, NMNATse, NRKse), His-tagged recombinant
NMNATse [1]: 0.04 Un/mg
NRKse and NMNATse activity (summary in words) [2]: possess NRKse activity in addition to NMNATse activity
RATIO [2]: 125
NmR Kinase [2]: 5 Un/mg

B2: NadR H. influenzae: N-truncated NadR protein from H. influenzae, amino acids 38-407, both NMNATse and NRKse domains (protein, UniProt P44308 38-407, looked up, fragment)
chain: YNKHTQFLRYQEQIMSKTKEKKVGVIFGKFYPVHTGHINMIYEAFSKVDELHVIVCSDTVRDLKLFYDSKMKRMPTVQDRLRWMQQIFKYQKNQIFIHHLVEDGIPSYPNGWQSWSEAVKTLFHEKHFEPSIVFSSEPQDKAPYEKYLGLEVSLVDPDRTFFNVSATKIRTTPFQYWKFIPKEARPFFAKTVAILGGESSGKSVLVNKLAAVFNTTSAWEYGREFVFEKLGGDEQAMQYSDYPQMALGHQRYIDYAVRHSHKIAFIDTDFITTQAFCIQYEGKAHPFLDSMIKEYPFDVTILLKNNTEWVDDGLRSLGSQKQRQQFQQLLKKLLDKYKVPYIEIESPSYLDRYNQVKAVIEKVLNEEEIS
NMNATse [1]: 0.9 Un/mg
NRKse and NMNATse activity (summary in words) [2]: possess NRKse activity in addition to NMNATse activity
RATIO [2]: 0.02
NmR Kinase [2]: 0.02 Un/mg

B3: NadR H. influenzae; N-terminal domain: N-terminal domain of NadR from H. influenzae, amino acids 38-212, only NMNATse domain (protein, UniProt P44308 38-212, looked up, fragment)
chain: YNKHTQFLRYQEQIMSKTKEKKVGVIFGKFYPVHTGHINMIYEAFSKVDELHVIVCSDTVRDLKLFYDSKMKRMPTVQDRLRWMQQIFKYQKNQIFIHHLVEDGIPSYPNGWQSWSEAVKTLFHEKHFEPSIVFSSEPQDKAPYEKYLGLEVSLVDPDRTFFNVSATKIRTTPFQ
NMNATse [1]: 3 Un/mg
RATIO [2]: <0.001
NmR Kinase [2]: <0.003 Un/mg

— patent US20030175925A1, “Nicotinamide ribonucleoside kinase” (priority 2001, published 2003)
